The results in this text go back to patent US20150337308, “MATRIX METALLOPROTEINASE 9 (MMP-9) APTAMER AND USES THEREOF” (CHU DE BORDEAUX, published 2015).

The target in series [1] is T1, hMMP-7 (Homo sapiens, UniProt P09237 P09237:95-267).
T1 sequence: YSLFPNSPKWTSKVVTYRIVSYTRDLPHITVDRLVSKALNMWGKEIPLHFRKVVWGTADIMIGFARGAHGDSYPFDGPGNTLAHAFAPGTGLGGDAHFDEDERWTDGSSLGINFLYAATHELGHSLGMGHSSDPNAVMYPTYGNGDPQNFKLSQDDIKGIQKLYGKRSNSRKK
As to the kind of experiment: SPR; 50 nM protein, PBS. To be noted: label: 3' biotin; hairpin. The procedure: (§1) Surface Plasmon Resonance (SPR) experiments were performed on a BIAcore™ 3000 apparatus (Biacore AB, Sweden). 2 μg of hMMP-9 protein were injected on a carboxymethylated dextran CM5 sensorchip for immobilisation and aptamers F3B, F3C1 and F3C2 were injected at 200 nM (20 μl/min) in SP buffer. Alternatively CM5 sensorchips were functionalized with streptavidin. 3′ end biotinylated F3B and F3Bomf were immobilised on the functionalized CM5 and hMMP-9 protein at 100 nM in SP buffer was injected. hMMP-9 was injected at different concentrations (from 5 to 160 nM) in PBS buffer. In another series of experiments 3′end biotinylated aptamer F3Bomf was immobilized and hMMP-9, pro-hMMP-9, mouse pro-MMP-9, human MMP-2 or MMP-7 proteins were injected at 50 nM in PBS buffer. SPR experiments were performed at 23° C., at 20 μl/min, and the complexes were dissociated with a pulse of a solution containing 40% formamide/3.6 M urea/30 mM EDTA (42).
(In general: Surface plasmon resonance follows binding to a sensor surface in real time, without labels.)

For the next series, the target named is hMMP-2 (gelatinase A) (Homo sapiens, UniProt P08253 P08253:110-660). In words: SPR; 50 nM protein, PBS. To be noted: label: 3' biotin; hairpin. The procedure:
as §1

For series [2], the target named is T2, hMMP-9 (gelatinase B) (Homo sapiens, UniProt P14780 P14780:107-707). In words: SPR; no detectable signal. To be noted: tags: Calbiochem. The procedure:
as §1
Next we optimized the F3B chemistry in the perspective of its use in biological media. […] However the equilibrium constant was evaluated to be in the low nanomolar range. […] In contrast, F3Bomf was able to discriminate between the human and the murine zymogen pro-MMP-9: a weak signal (49 RU) to the mouse pro-MMP-9 was detected, compared to about 1 300 RU with the human proenzyme.

Series [3] concerns the target T1, hMMP-7. In words: filter; no retention. To be noted: label: 32P 5' end; imperfect hairpin.
The target in the next series is T3, pro-hMMP-7 (Homo sapiens, UniProt P09237 P09237:18-267).
T3 sequence: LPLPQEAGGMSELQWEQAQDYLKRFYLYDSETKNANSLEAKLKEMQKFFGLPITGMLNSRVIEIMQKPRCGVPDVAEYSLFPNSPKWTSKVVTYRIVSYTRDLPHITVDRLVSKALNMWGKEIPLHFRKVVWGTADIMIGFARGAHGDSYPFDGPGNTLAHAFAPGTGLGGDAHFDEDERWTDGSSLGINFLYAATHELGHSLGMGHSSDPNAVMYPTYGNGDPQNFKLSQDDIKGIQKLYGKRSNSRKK
As to the kind of experiment: filter; no retention. The conditions noted are these: label: 32P 5' end; imperfect hairpin.

Series [4] has as its target T2, hMMP-9 (gelatinase B). As to the kind of experiment: filter; SP buffer (5 mM CaCl2, 1 mM Mg acetate), 23 C. To be noted: tags: Calbiochem; label: 32P 5' end; imperfect hairpin. Here is the method:
The dissociation constant (Kd) of the complexes, formed by the aptamers and the hMMP-9 protein, was determined using the filter retention method. 1 nM of ³²P 5′end-labeled aptamer was incubated with increasing concentrations of hMMP-9 (10, 20, 40, 72, 160, 320, 500 nM) for 20 min at 23° C. in 20 μl SP buffer. Complexes were filtered and the radioactivity retained on the filter was quantified using a scintillation counter (LS 6000 IC, Beckman). Kd values were deduced from data point fitting with Kaleidagraph 3.0 (Abelbeck software), according to the equation: B=(Bmax[L]₀)/([…]), where B is the proportion of complex, Bmax is the maximum of complex formed and [L]₀ is the total concentration of unlabeled ligand.

A word on the Kd: it is the concentration at which binding is half-saturated. A high value points to a looser complex.

T2 sequence (P14780 107-707, one chain of several): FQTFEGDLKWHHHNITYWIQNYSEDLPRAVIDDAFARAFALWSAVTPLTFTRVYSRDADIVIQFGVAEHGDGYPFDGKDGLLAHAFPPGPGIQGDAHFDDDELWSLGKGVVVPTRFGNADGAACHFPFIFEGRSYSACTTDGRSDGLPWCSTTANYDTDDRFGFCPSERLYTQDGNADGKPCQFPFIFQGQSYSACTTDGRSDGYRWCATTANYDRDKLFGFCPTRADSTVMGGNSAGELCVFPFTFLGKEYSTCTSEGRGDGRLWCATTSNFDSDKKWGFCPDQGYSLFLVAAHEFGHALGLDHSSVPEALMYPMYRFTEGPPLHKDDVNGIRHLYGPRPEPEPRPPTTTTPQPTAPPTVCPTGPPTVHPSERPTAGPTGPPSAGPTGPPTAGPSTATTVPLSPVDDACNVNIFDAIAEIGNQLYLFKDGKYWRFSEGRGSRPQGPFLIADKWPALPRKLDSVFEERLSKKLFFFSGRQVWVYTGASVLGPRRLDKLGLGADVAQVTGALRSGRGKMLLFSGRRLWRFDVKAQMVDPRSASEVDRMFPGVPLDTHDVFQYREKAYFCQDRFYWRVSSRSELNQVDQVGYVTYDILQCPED
hMMP-2 (gelatinase A), sequence (P08253 110-660, one chain of several): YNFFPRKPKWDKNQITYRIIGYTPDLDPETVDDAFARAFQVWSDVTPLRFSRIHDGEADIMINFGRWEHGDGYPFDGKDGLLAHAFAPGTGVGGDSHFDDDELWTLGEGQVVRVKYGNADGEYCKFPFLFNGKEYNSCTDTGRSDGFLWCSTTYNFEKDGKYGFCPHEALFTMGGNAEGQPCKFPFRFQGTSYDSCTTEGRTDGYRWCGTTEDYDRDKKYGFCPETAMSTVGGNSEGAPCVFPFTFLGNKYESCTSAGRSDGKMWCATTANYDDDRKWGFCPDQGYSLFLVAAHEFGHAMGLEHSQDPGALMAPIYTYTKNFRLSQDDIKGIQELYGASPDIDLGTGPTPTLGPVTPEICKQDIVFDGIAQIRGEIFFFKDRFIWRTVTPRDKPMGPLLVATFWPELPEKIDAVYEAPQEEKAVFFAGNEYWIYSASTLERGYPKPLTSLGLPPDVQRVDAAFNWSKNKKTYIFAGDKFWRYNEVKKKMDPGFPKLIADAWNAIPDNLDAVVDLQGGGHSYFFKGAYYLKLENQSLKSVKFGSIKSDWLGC

For the molecule UGCCCUGCCCUCACCCGUUAGCCUGAGCGCCCCGCA (XNA, 2'-F pyrimidines, 2'-OMe purines) [F3Bomf], the binding result with hMMP-7 [1] and with hMMP-2 (gelatinase A) was “no binding” each time.
Consider UGCCAAACGCGUCCCCUUUGCCCGGCCUCCGCCGCA (XNA, 2'-F pyrimidines, 2'-OMe purines) [control scrambled sequence], for which the binding result with hMMP-9 (gelatinase B) [2] is “no binding”.

B1: F3 (ssRNA)
RNA: GGUUACCAGCCUUCACUGCCCUGCCCUCACCCGUUAGCCUGAGCGCCCCGCACCACGGUCGGUCACAC
modifications: 2'-F pyrimidines, 2'-OH purines
Take B1: the binding result with hMMP-7 [3] and with pro-hMMP-7 was “no binding” throughout. The molecule further yielded a Kd in the series with hMMP-9 (gelatinase B) [4] of 8.1 nM.
